Read-outs that look alike come from different tables or passages of the source.
T1: FcgRIIa H (human, UniProt P12318)
T1 chain: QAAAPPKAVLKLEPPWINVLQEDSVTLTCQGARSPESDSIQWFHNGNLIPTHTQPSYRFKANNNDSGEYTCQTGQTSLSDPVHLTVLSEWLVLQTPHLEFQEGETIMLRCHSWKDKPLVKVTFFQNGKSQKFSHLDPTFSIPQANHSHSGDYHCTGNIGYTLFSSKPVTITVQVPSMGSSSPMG

T2: FcgRIa (human, UniProt P12314)
T2 chain: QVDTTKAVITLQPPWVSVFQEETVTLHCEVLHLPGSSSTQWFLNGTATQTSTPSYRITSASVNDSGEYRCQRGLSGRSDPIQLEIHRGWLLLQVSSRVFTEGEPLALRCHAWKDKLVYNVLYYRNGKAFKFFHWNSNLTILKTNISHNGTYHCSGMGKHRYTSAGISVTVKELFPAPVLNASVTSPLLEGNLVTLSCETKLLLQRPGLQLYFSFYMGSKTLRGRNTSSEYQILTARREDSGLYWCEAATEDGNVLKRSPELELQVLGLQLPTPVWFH

T3: FcgRIIa R (human, UniProt P12318)
T3 chain: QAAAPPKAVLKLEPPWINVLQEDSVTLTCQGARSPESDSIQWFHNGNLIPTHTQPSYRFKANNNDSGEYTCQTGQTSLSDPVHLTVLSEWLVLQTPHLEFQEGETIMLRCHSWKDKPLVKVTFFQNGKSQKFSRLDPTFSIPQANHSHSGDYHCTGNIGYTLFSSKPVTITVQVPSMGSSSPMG

T4: FcgRIIb (human, UniProt P31994)
T4 chain: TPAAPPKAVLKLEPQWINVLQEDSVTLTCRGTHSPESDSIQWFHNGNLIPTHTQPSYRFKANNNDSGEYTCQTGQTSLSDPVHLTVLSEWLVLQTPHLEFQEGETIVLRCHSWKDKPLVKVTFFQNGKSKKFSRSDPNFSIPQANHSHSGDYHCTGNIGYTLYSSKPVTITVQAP


Experiments:
Experiment in all cases: SPR
FcgRIIa H [1] = target: T1, FcgRIIa H
FcgRIIIa V [2] = target: T5, FcgRIIIa V (human, UniProt P08637)
FcgRIIIa F [3] = target: T6, FcgRIIIa F (human, UniProt P08637)
FcgRIa [4] = target: T2, FcgRIa
FcgRIIa R [5] = target: T3, FcgRIIa R
FcgRIIb [6] = target: T4, FcgRIIb
FcgRIIIa F [7] = target: T6, FcgRIIIa F; remark: listed apart in the source
FcgRIIIa V [8] = target: T5, FcgRIIIa V; remark: listed apart in the source
FcgRIIa R [9] = target: T3, FcgRIIa R
FcgRIIa H [10] = target: T1, FcgRIIa H
FcgRIa [11] = target: T2, FcgRIa
FcgRIIb [12] = target: T4, FcgRIIb

T5 sequence (P08637 17-208 F176V): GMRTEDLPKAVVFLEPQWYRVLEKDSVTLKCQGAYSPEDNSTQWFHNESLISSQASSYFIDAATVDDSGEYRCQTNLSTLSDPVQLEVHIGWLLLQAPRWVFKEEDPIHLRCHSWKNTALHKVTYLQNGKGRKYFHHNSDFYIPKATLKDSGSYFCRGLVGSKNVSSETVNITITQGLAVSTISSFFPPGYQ
T6 sequence (P08637 17-208): as the sequence (P08637 17-208 F176V) above, with V160F counted along it

| Kd (FcgRIIa H [1]) | Kd (FcgRIIIa V [2]) | Kd (FcgRIIIa F [3]) | Kd (FcgRIa [4]) | Kd (FcgRIIa R [5]) | Kd (FcgRIIb [6]) | Kd (FcgRIIIa F [7]) | Kd (FcgRIIIa V [8]) | Kd (FcgRIIa R [9]) | Kd (FcgRIIa H [10]) | Kd (FcgRIa [11]) | Kd (FcgRIIb [12]) | Binder |
| --- | --- | --- | --- | --- | --- | --- | --- | --- | --- | --- | --- | --- |
| 150 nM | 0.49 nM | 1.8 nM | 0.079 nM | 590 nM | 4200 nM | – | – | – | – | – | – | H240-Kn210/H240-Hl076/L73-k0 (antibody) chain 1: QDQLVQSGAEVKKPGASVKVSCKASGFNIKDTYIQWVRQAPGQGLEWMGRIDPLRKQTKYREKFEGRVTITADTSTNTAYMELSSLRSEDTAVYYCVRSGREFDYWGQGTLVTVSSASTKGPSVFPLAPSSKSTSGGTAALGCLVKDYFPEPVTVSWNSGALTSGVHTFPAVLQSSGLYSLSSVVTVPSSSLGTQTYICNVNHKPSNTKVDKKVEPKSCDKTHTCPPCPAPEIQWGPMVFLFPPKPKDTLMISRTPEVTCVVVDVSDEEPEVKFNWYVDGVEVHNAKTKPREEQYNATYRVVSVLTVLHQDWLNGKEYKCKVSNKALPAPIEKTISKAKGQPREPQVCTLPPSRDELTKNQVSLWCLVKGFYPSDIAVEWESNGQPENNYKTTPPVLDSDGSFFLYSKLTVDKSRWQQGNVFSCSVMHEALHNHYTQKSLSLSP chain 2: QDQLVQSGAEVKKPGASVKVSCKASGFNIKDTYIQWVRQAPGQGLEWMGRIDPLRKQTKYREKFEGRVTITADTSTNTAYMELSSLRSEDTAVYYCVRSGREFDYWGQGTLVTVSSASTKGPSVFPLAPSSKSTSGGTAALGCLVKDYFPEPVTVSWNSGALTSGVHTFPAVLQSSGLYSLSSVVTVPSSSLGTQTYICNVNHKPSNTKVDKKVEPKSCDKTHTCPPCPAPELLGGPSVFLFPPKPKDTLMISRTPEVTCVVVDVSHEEPEVKFNWYVDGVEVHNAKTKPREEQYNSTYRVVSVLTVLHQDWLNGKEYKCKVSNDALPMPIEETISKAKGQPREPQVYTLPPSRCELTKNQVSLSCAVKGFYPSDIAVEWESNGQPENNYKTTPPVLDSDGSFFLVSKLTVDKSRWQQGNVFSCSVMHEALHNHYTQKSLSLSP chain 3: DIQMTQSPSSLSASVGDRVTITCRASQDIHKYIAWYQQKPGQAPRLLIQYTSTLQPGVPSRFSGSGSGTDYTFTISSLQPEDIATYYCLQYEQLRTFGGGTKVEIKRTVAAPSVFIFPPSDEQLKSGTASVVCLLNNFYPREAKVQWKVDNALQSGNSQESVTEQDSKDSTYSLSSTLTLSKADYEKHKVYACEVTHQGLSSPVTKSFNRGEC |
| – | – | – | – | – | – | 3.9 nM | 1.1 nM | 250 nM | 64 nM | 0.12 nM | 1400 nM | H240-FA009/H240-FB020/L73-k0 (antibody) chain 1: QDQLVQSGAEVKKPGASVKVSCKASGFNIKDTYIQWVRQAPGQGLEWMGRIDPLRKQTKYREKFEGRVTITADTSTNTAYMELSSLRSEDTAVYYCVRSGREFDYWGQGTLVTVSSASTKGPSVFPLAPSSKSTSGGTAALGCLVKDYFPEPVTVSWNSGALTSGVHTFPAVLQSSGLYSLSSVVTVPSSSLGTKTYICNVNHKPSNTKVDKKVEPKSCDKTHTCPPCPAPEYYWGPSVFLFPPKPKDTLMISRTPEVTCVVVDVSDEEPEVKFNWYVDGVEVHNAKTKPREEQYNATYRVVSVLTVLHQDWLNGKEYKCKVSNKALPAPIEKTISKAKGQPREPQVYTLPPSRKEMTKNQVSLTCLVKGFYPSDIAVEWESNGQPENNYKTTPPVLDSDGSFFLYSKLTVDKSRWQQGNVFSCSVMHEALHNRYTQKSLSLSP chain 2: QDQLVQSGAEVKKPGASVKVSCKASGFNIKDTYIQWVRQAPGQGLEWMGRIDPLRKQTKYREKFEGRVTITADTSTNTAYMELSSLRSEDTAVYYCVRSGREFDYWGQGTLVTVSSASTKGPSVFPLAPSSKSTSGGTAALGCLVEDYFPEPVTVSWNSGALTSGVHTFPAVLQSSGLYSLSSVVTVPSSSLGTQTYICNVNHKPSNTKVDKKVEPKSCDKTHTCPPCPAPELLGGPSVFLFPPKPKDTLMISRTPEVTCVVVDVSHEEPEVQFNWYVDGVEVHNAKTKPREEQYNSTYRVVSVLTVLHQDWLNGKEYKCKVSNDALPMPIEETISKAKGQPREPQVYTLPPSREEMTKNQVSLTCLVKGFYPSDIAVEWESNGQPENNYKTTPPVLDSDGSFFLYSKLTVDKSRWQQGNVFSCSVMHEALHNHYTQESLSLSP chain 3: DIQMTQSPSSLSASVGDRVTITCRASQDIHKYIAWYQQKPGQAPRLLIQYTSTLQPGVPSRFSGSGSGTDYTFTISSLQPEDIATYYCLQYEQLRTFGGGTKVEIKRTVAAPSVFIFPPSDEQLKSGTASVVCLLNNFYPREAKVQWKVDNALQSGNSQESVTEQDSKDSTYSLSSTLTLSKADYEKHKVYACEVTHQGLSSPVTKSFNRGEC |
| – | – | – | – | – | – | 3.5 nM | 1 nM | 220 nM | 57 nM | 0.068 nM | 1400 nM | H240-FA020/H240-FB084/L73-k0 (antibody) chain 1: QDQLVQSGAEVKKPGASVKVSCKASGFNIKDTYIQWVRQAPGQGLEWMGRIDPLRKQTKYREKFEGRVTITADTSTNTAYMELSSLRSEDTAVYYCVRSGREFDYWGQGTLVTVSSASTKGPSVFPLAPSSKSTSGGTAALGCLVKDYFPEPVTVSWNSGALTSGVHTFPAVLQSSGLYSLSSVVTVPSSSLGTKTYTCNVNHKPSNTKVDKKVEPKSCDKTHTCPPCPAPEYYWGPSVFLFPPKPKDTLMISRTPEVTCVVVDVSDEEPEVKFNWYVDGVEVHNAKTKPREEQYNATYRVVSVLTVLHQDWLNGKEYKCKVSNKALPAPIEKTISKAKGQPREPQVYTLPPSRKEKTKNQVSLTCLVKGFYPSDIAVEWESNGQPENNYKTTPPVLDSDGSFFLYSKLTVDKSRWQQGNVFSCSVMHEALHNRYTQKSLSLSP chain 2: QDQLVQSGAEVKKPGASVKVSCKASGFNIKDTYIQWVRQAPGQGLEWMGRIDPLRKQTKYREKFEGRVTITADTSTNTAYMELSSLRSEDTAVYYCVRSGREFDYWGQGTLVTVSSASTKGPSVFPLAPSSKSTSESTAALGCLVEDYFPEPVTVSWNSGALTSGVHTFPAVLQSSGLYSLSSVVTVPSSNFGTQTYTCNVDHKPSNTKVDKTVEPKSCDKTHTCPPCPAPELLGGPSVFLFPPKPKDTLMISRTPEVTCVVVDVSHEEPEVQFNWYVDGVEVHNAETKPREEQYNSTYRVVSVLTVLHQDWLNGKEYKCKVSNDALPMPIEETISKAKGQPREPQVYTLPPSREEMTKNQVSLTCLVKGFYPSDIAVEWESEGQPENNYKTTPPVLDSDGSFFLYSKLTVDKSRWQQGNVFSCSVMHEALHNHYTQESLSLSP chain 3: DIQMTQSPSSLSASVGDRVTITCRASQDIHKYIAWYQQKPGQAPRLLIQYTSTLQPGVPSRFSGSGSGTDYTFTISSLQPEDIATYYCLQYEQLRTFGGGTKVEIKRTVAAPSVFIFPPSDEQLKSGTASVVCLLNNFYPREAKVQWKVDNALQSGNSQESVTEQDSKDSTYSLSSTLTLSKADYEKHKVYACEVTHQGLSSPVTKSFNRGEC |
